Test results published in PMC5750218, “Protein-inspired antibiotics active against vancomycin- and daptomycin-resistant bacteria” (Nature Communications, 2018).
In brackets after ≈: the same amount, converted by molar mass. Several values for one entry are separate records, joined by “and”; a condition that tells them apart may be missing. Equal values may be shown once. Read-outs that look alike come from different tables or passages of the source.

Tests used:
MRSA = MRSA in 50% human serum / 50% MHB
Method: The compounds, along with standard antibiotics were serially diluted twofold across the wells of 96-well non-binding surface (NBS) polystyrene plates (Corning 3641). […] Standards ranged from 64 to 0.03 µg mL^−1 and compounds from 8 to 0.003 µg mL^−1 with final assay volumes of 100 µL per well. Gram-positive bacteria were cultured in Mueller Hinton broth (MHB) (Bactolaboratories, Cat. no. 211443) at 37 °C overnight. A sample of each culture was then diluted 40-fold in fresh MHB and incubated at 37 °C for 2–3 h. […] All the plates were covered and incubated at 37 °C for 24 h. MICs were the lowest concentration showing no visible growth.
The compounds, along with standard antibiotics, tested in BMD-MIC assay as above, in the presence of a mixture of 50% human serum (Sigma-Aldrich) and 50% MHB.

[1] = tested on: Methicillin-resistant S. aureus ATCC 43300; assay: microbe, parasite or virus in culture
Procedure, shortened: (§1)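 Reported values are MICs read as the lowest concentration showing no visible growth after 24 h at 37 °C. Compounds were tested by twofold broth microdilution in Mueller Hinton broth over 8 to 0.003 µg mL^−1.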

[2] = tested on: Multi-drug-resistant S. pneumoniae ATCC 700677; assay: microbe, parasite or virus in culture
Procedure, shortened: as §1

[3] = tested on: Vancomycin-intermediate S. aureus NRS1; assay: microbe, parasite or virus in culture
Procedure, shortened: as §1

[4] = tested on: Vancomycin-resistant (VanA) Enterococcus faecium ATCC 51559; assay: microbe, parasite or virus in culture
Procedure, shortened: as §1

Cytotoxicity MTT assay [5] = assay type: cell-based, human; conditions: human
Method: Compound cytotoxicity was evaluated against HepG2 (ATCC-®HB-8065 liver hepatoceullular carcinoma) and HEK293 (ATCC®CRL-1573, embryonic kidney) human cell lines using standard (3-(4,5-dimethylthiazol-2-yl)−2,5-diphenyltetrazolium bromide (MTT) assay protocol with slight changes. In brief, HepG2 and HEK293 cells (assessed annually for mycoplasma contamination) were seeded as 1.5 × 10^4 cells per well in a clear 96-well tissue culture treated plate in a final volume of 100 μL in Dulbecco’s Modified Eagle Medium (DMEM)(GIBCO-Invitrogen #11995-073), in which 1% of FBS was added. Cells were incubated for 24 h at 37 °C, 5% CO2 to allow cells to attach to the plates. […] After the incubation, 0.4 mg mL^−1 MTT (3-(4,5-dimethylthiazol-2-yl)−2,5-diphenyltetrazolium bromide) (Invitrogen) was added to each well. The plates were then incubated for 2 h at 37 °C, 5% CO2. The media was removed, and purple formazan crystals were resuspended in 60 μL of DMSO. The absorbance was read at 570 nm using a Polarstar Omega plate reader. The data was then analysed by Prism software. Results are presented as the average percentage of control ± S.D. for each set of duplicate wells using the following equation: percent viability = (ABSTEST – ABSPOSITIVE CTRL / ABSUNTREATED –ABS POSITIVE CTRL)×100.

Cytotoxicity MTT assay [6] = assay type: cell-based, human; conditions: human; remark: listed apart in the source
Method: Compound cytotoxicity was evaluated against HepG2 (ATCC-®HB-8065 liver hepatoceullular carcinoma) and HEK293 (ATCC®CRL-1573, embryonic kidney) human cell lines using standard (3-(4,5-dimethylthiazol-2-yl)−2,5-diphenyltetrazolium bromide (MTT) assay protocol with slight changes. In brief, HepG2 and HEK293 cells (assessed annually for mycoplasma contamination) were seeded as 1.5 × 10^4 cells per well in a clear 96-well tissue culture treated plate in a final volume of 100 μL in Dulbecco’s Modified Eagle Medium (DMEM)(GIBCO-Invitrogen #11995-073), in which 1% of FBS was added. Cells were incubated for 24 h at 37 °C, 5% CO2 to allow cells to attach to the plates. Compounds prepared at 100 µM to 0.046 µM in threefold dilutions were added into each well and incubated for 24 h at 37 °C, 5% CO2. After the incubation, 0.4 mg mL^−1 MTT (3-(4,5-dimethylthiazol-2-yl)−2,5-diphenyltetrazolium bromide) (Invitrogen) was added to each well. The plates were then incubated for 2 h at 37 °C, 5% CO2. The media was removed, and purple formazan crystals were resuspended in 60 μL of DMSO. The absorbance was read at 570 nm using a Polarstar Omega plate reader. The data was then analysed by Prism software. Results are presented as the average percentage of control ± S.D. for each set of duplicate wells using the following equation: percent viability = (ABSTEST – ABSPOSITIVE CTRL / ABSUNTREATED –ABS POSITIVE CTRL)×100.

Haemolysis assay = assay type: cell-based; conditions: human, whole blood
Method: Haemolytic activity was measured as previously described with slight modifications, [45]. Fresh human venal blood was collected from healthy volunteers and pretreated with the anticoagulant sodium citrate. Serial twofold dilutions of each antibiotic, dissolved in 0.9% NaCl solution, were added to fresh human whole blood (50% final, vol:vol) to the final volume of 80 μL and incubated at 37 °C for 3 h on a horizontal shaker at 200 rpm. For negative and positive controls, human whole blood in 0.9% NaCl solution (A blank) and in sdH2O (A water) were used, respectively. After incubation, both test and A blank were mixed with 1 mL 0.9% NaCl solution, or sdH2O for the complete […] A water. After centrifugation of samples at 2500 rpm (700 × g) for 5 min, the release of haemoglobin was monitored by measuring the absorbance (A sample) of the supernatant at 540 nm using BMG Labtech PolarStar Omega multimode reader. The percentage of haemolysis was calculated according to the equation: %haemolysis=Asample-Ablank∕Awater-Ablank×100

[7] = tested on: Bacillus subtilis ATCC 6633; assay: microbe, parasite or virus in culture; assay type: cell-based; conditions: for Ac2Kaa concentration required to neutralise MIC activity / MIC: ATCC 6633, 48 h
Method: All compounds were dissolved in H2O. Bacillus subtilis ATCC® 6633™ NRS-231 was cultured in MHB at 37 °C for 48 h. A sample of each culture was then diluted 40-fold in fresh MHB and incubated at 37 °C for 18 h. Compounds were added to each row of 96-well NBS plates (NBS, Corning 3641), in duplicate. The tripeptide N,N΄-diacetyl-L-Lys-D-Ala-D-Ala was serially diluted twofold across the compound-containing wells from 6400 to 3 µg mL^−1. To this the resultant mid-log phase cultures were diluted to the final concentration of 5 × 10^5 CFU mL^−1, then added to wells of the compound-containing plates. All the plates were covered and incubated at 37 °C for 24 h.

[8] = 37 °C, 20 µM
Method: (§2) Briefly, test compounds (20 μM) were prepared from a 0.2 mM H2O stock solution (40 μL in 400 μL assay volume) except eucatropine, which was 300 μg mL^−1 in 100% DMSO (10 μL in 400 μL assay volume equivalent to 23 μM). The precipitating solution was prepared by adding 5 μL of 10 mM carbutamide in DMSO to 100 mL acetonitrile (final concentration: 135.5 ng mL^−1 or 0.5 μM carbutamide). The human plasma sample (pooled normal human plasma sodium heparin anticoagulant, 2 µL, Cat No.: [sequence], BioReclamation) and phosphate-buffer saline (PBS, pH 7.4 isotonic) were pre-heated at 37 °C for 30 min. 40 μL of test compounds (0.2 mM) were added to protein-low binding Eppendorf tubes, 160 μL of buffer was added, and the mixture was vortexed. For eucatropine, 10 μL of eucatropine (300 μg mL^−1) was added to a protein-low binding Eppendorf tube, 190 μL of buffer was added, and the mixture was vortexed. In each case, 200 μL of plasma was added and the resultant mixture vortexed. For the initial time point (reaction time t = 0 h), 50 μL of sample was immediately transferred into a protein-low binding Eppendorf tube and quenched with 150 μL of the ice-cold precipitating solution, followed by vortexing and subsequent storage at 4 °C. For the remaining time points, the plasma solution was incubated and shaken (150 rpm) at 37 °C. 50 μL aliquots were collected at time points of 0, 1, 3, 6 and 24 h and quenched with 150 μL the ice-cold precipitating solution. All samples were placed in a 4 °C fridge for 30 min then centrifuged at 14,000 × g for 8 min at 4 °C. The supernatant (100 μL) was transferred to a glass vial insert and stored at 4 °C until LC-MS/MS analysis. The percentage of test compounds remaining at the individual time points relative to sample at time point 0 h were reported.

in vitro = conditions: human, 50% human plasma (pooled, sodium heparin) in PBS, pH 7.4
Method: as §2

Compound | MIC +50% HS (MRSA) | MIC MRSA ([1]; ATCC 43300, 24 h) | MIC MDR S.P. ([2]; ATCC 700677) | MIC VISA ([3]; Vancomycin-intermediate NRS1) | MIC VRE ([4]; ATCC 51559) | CC50 at 24 h (Cytotoxicity MTT assay [5]) | CC50 at 24 h (Cytotoxicity MTT assay [6]) | Ac2Kaa concentration required to neutralise MIC activity [7] | MIC [7] | % compound remaining after incubation in 50% human plasma, 0h [8] | remaining at 1 h, 20 µM (in vitro) | remaining at 6 h, 20 µM (in vitro) | remaining at 24 h, 20 µM (in vitro) | remaining at 3 h, 20 µM (in vitro) | also measured
POB2K-K-Dap-K(Vancomycin)-NHMe [Compound 27] | 0.25 µg/mL and 0.375 µg/mL | – | – | – | – | – | – | – | – | – | – | – | – | – | –
CCCCCCCCCCCCCC(=O)NCC(=O)N[C@@H](CO)C(=O)N[C@@H](CCCCN)C(=O)N[C@@H](CCCCN)C(=O)N[C@@H](CCCCN)C(=O)N[C@@H](CSSCCNC(=O)[C@H]1NC(=O)[C@H]2NC(=O)[C@H](NC(=O)[C@@H]3NC(=O)[C@H](CC(N)=O)NC(=O)[C@H](NC(=O)[C@@H](CC(C)C)NC)[C@H](O)c4ccc(c(Cl)c4)Oc4cc3cc(c4O[C@@H]3O[C@H](CO)[C@@H](O)[C@H](O)[C@H]3O[C@H]3C[C@](C)(N)[C@H](O)[C@H](C)O3)Oc3ccc(cc3Cl)[C@H]2O)c2ccc(O)c(c2)-c2c(O)cc(O)cc21)C(=O)O [Compound 14] | – | <0.003 µg/mL | <0.003 µg/mL | <0.003 µg/mL | 0.09 µg/mL (≈ 0.038 µM) | 4 µM | 11 µM | > 3200 µg/mL | ≤ 0.004 µg/mL | 100% | 119% | 82% | 18% | – | hemolysis at 3 h (Haemolysis assay; 100 µg mL-1): 0.4%; hemolysis at 3 h (Haemolysis assay; 1600 µg mL-1): 6.4%
CCCCCCCCCCC(=O)N[C@@H](CCCCNC(=O)[C@H]1NC(=O)[C@H]2NC(=O)[C@H](NC(=O)[C@@H]3NC(=O)[C@H](CC(N)=O)NC(=O)[C@H](NC(=O)[C@@H](CC(C)C)NC)[C@H](O)c4ccc(c(Cl)c4)Oc4cc3cc(c4O[C@@H]3O[C@H](CO)[C@@H](O)[C@H](O)[C@H]3O[C@H]3C[C@](C)(N)[C@H](O)[C@H](C)O3)Oc3ccc(cc3Cl)[C@H]2O)c2ccc(O)c(c2)-c2c(O)cc(O)cc21)C(=O)O [Compound 20, nC10CO-K(Vancomycin)-OH] | – | 0.125 µg/mL (≈ 0.0716 µM) | 0.19 µg/mL (≈ 0.109 µM) | 1.5 µg/mL (≈ 0.859 µM) | >8 µg/mL | > 500 µM | > 500 µM | 12.5 µg/mL | 0.03 µg/mL (≈ 0.0172 µM) | 100% | 101% | 100% | 89% | 101% | Molar excess of Ac2Kaa ligand required to antagonise antibacterial activity ([7]; [ligand]/[antibiotic], B. subtilis ATCC 6633, 24 h): 663
CCCCCCCCCCCCCC(=O)N[C@@H](CCCCN)C(=O)N[C@@H](CCCCN)C(=O)N[C@@H](CCCCN)C(=O)N[C@@H](CSSCCNC(=O)[C@H]1NC(=O)[C@H]2NC(=O)[C@H](NC(=O)[C@@H]3NC(=O)[C@H](CC(N)=O)NC(=O)[C@H](NC(=O)[C@@H](CC(C)C)NC)[C@H](O)c4ccc(c(Cl)c4)Oc4cc3cc(c4O[C@@H]3O[C@H](CO)[C@@H](O)[C@H](O)[C@H]3O[C@H]3C[C@](C)(N)[C@H](O)[C@H](C)O3)Oc3ccc(cc3Cl)[C@H]2O)c2ccc(O)c(c2)-c2c(O)cc(O)cc21)C(=O)O [Compound 15, nC13CO-KKKC(SCH 2 CH 2 NH-Vancomycin)-OH] | – | <0.003 µg/mL | <0.003 µg/mL | 0.02 µg/mL (≈ 0.009 µM) | 0.02 µg/mL (≈ 0.009 µM) | 11 µM | 18 µM | – | – | 100% | 77% | 51% | 3% | 64% | –
CCCCCCCCCCCCCC(=O)NCC(=O)N[C@@H](CO)C(=O)N[C@@H](CO)C(=O)N[C@@H](CCCCN)C(=O)N[C@@H](CO)C(=O)N1CCC[C@H]1C(=O)N[C@@H](CO)C(=O)N[C@@H](CCCCN)C(=O)N[C@@H](CCCCN)C(=O)N[C@@H](CCCCN)C(=O)N[C@@H](CCCCN)C(=O)N[C@@H](CCCCN)C(=O)N[C@@H](CCCCN)C(=O)N1CCC[C@H]1C(=O)NCC(=O)N[C@@H](CC(=O)O)C(=O)N[C@@H](CSSCCNC(=O)[C@H]1NC(=O)[C@H]2NC(=O)[C@H](NC(=O)[C@@H]3NC(=O)[C@H](CC(N)=O)NC(=O)[C@H](NC(=O)[C@@H](CC(C)C)NC)[C@H](O)c4ccc(c(Cl)c4)Oc4cc3cc(c4O[C@@H]3O[C@H](CO)[C@@H](O)[C@H](O)[C@H]3O[C@H]3C[C@](C)(N)[C@H](O)[C@H](C)O3)Oc3ccc(cc3Cl)[C@H]2O)c2ccc(O)c(c2)-c2c(O)cc(O)cc21)C(N)=O [Compound 8] | >8 µg/mL | – | – | – | – | – | – | – | – | – | – | – | – | – | MIC MRSA ([1]; S. aureus ATCC 43300, NBS plates, MHB, 24 h, substance alone): 0.5 µg/mL (≈ 0.143 µM); MIC MDR S.P. ([2]; S. pneumoniae ATCC 700677): 0.5 µg/mL (≈ 0.143 µM); MIC VISA ([3]; S. aureus NRS1): 4 µg/mL (≈ 1.14 µM); MIC VRE ([4]; E. faecium MDR VanA ATCC 51559, substance alone): 0.125 µg/mL (≈ 0.0357 µM); CC50 at 24 h (Cytotoxicity MTT assay [5]; 24 h, MTT, 1% FBS, read-out: Cytotoxicity CC50 HepG2): 10 µM; CC50 at 24 h (Cytotoxicity MTT assay [6]; 24 h, MTT, 1% FBS, read-out: Cytotoxicity CC50 HEK293): 22 µM
